We go through 3 molecules from patent US20200247855A1, “THERAPY AND DIAGNOSTICS” (OXFORD UNIVERSITY INNOVATION LIMITED, priority 2017, published 2020).

Assay [1] deals with T1, CCL5_HUMAN (human), P13501.
T1 chain: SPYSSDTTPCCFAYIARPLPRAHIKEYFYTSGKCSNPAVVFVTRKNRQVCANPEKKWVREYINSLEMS
As to the kind of experiment: BLI. To be noted: remark: other sources report otherwise.

The target of assay [2] is T2, CCL8_HUMAN (human), P80075.
T2 chain: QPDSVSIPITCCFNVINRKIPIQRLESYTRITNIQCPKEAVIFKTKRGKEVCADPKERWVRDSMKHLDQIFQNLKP
As to the kind of experiment: fluorescence polarisation; Kd1, two-site fit. To be noted: modification not given. In general terms: Polarisation of emitted light reports the rotation of a fluorescent probe.

Assay [3] deals with T2, CCL8_HUMAN (human), P80075. As to the kind of experiment: fluorescence polarisation; Kd2, two-site fit. To be noted: modification not given.
Assay [4] concerns the target T2, CCL8_HUMAN (human), P80075. As to the kind of experiment: FACS, inhibition of CCL8-647 binding to THP-1 cells. To be noted: modification not given. A general note: In flow cytometry, cells or beads pass a laser one at a time.

B1: P974_AMBCA, A0A023FDY8 22-118 (protein)
chain: ENTQQEEQDYDYGTDTCPFPVLANKTNKAKFVGCHQKCNGGDQKLTDGTACYVVERKVWDRMTPMLWYECPLGECKNGVCEDLRKKEDCRKGNGEEK
The Kd is the free concentration of one partner at which half of the binding sites on the other are occupied at equilibrium, for simple one-to-one binding. The low end stands for higher affinity, the high end for lower affinity. B1 yielded a Kd in assay [1] of 160 nM. As to EDEDYEDFFKPVTAYF [P672_PEP-FITC], the results for the dissociation constant (Kd) in assay [2] and in assay [3] were 11.9 nM and 252 nM, respectively. As a reminder, the IC50 is the concentration needed to halve the response being measured. Read a high IC50 as lower potency. EDEDYEDFFKPVTAYF [P672_PEP (peptide BK1.1)]: in assay [4], the half-inhibitory concentration (IC50) was 4900 nM.
